Results: patent publication US20210246166A1 (Bayer, published 2021)
Numbered stars: 1 amine (or outer) side, 2 acyl side, 3 side chain; on linkers, the order of the positions; unused ones are H or OH. Bridge positions count the residues as written; N and C are the ends. Square brackets hold non-standard residues; d marks the D form. Ends that are not written are not given here. X3 = (1R,3S)‑3‑(Amino)cyclopentanecarboxylic acid, O=C([C@@H]1CC[C@H](N[*:1])C1)[*:2]; X4 = (1S,3R)‑3‑(Amino)cyclopentanecarboxylic acid, O=C([C@H]1CC[C@@H](N[*:1])C1)[*:2]; X9 = (S)‑3‑(1-Pyrrolidine-2-yl)‑propionic acid, O=C(CC[C@@H]1CCCN1[*:1])[*:2]; X8 = (R)‑4‑Amino‑6‑methylheptanoic acid, CC(C)C[C@@H](CCC(=O)[*:2])N[*:1]; X6 = (S)‑(1-Piperidin-3-yl)‑acetic acid, O=C(C[C@@H]1CCCN([*:1])C1)[*:2]; Ida = iminodiacetic acid, O=C(CN(CC(=O)[*:3])[*:1])[*:2]; His(τ-Bzl) = N[C@@H](Cc1cn(Cc2ccccc2)cn1)C(=O)O; Oic = O=C(O)[C@@H]1C[C@@H]2CCCC[C@@H]2N1; βPro(3S) = O=C([C@H]1CCN([*:1])C1)[*:2]; tBuAla = CC(C)(C)C[C@H](N)C(=O)O; Pen = CC(C)(S)[C@H](N)C(=O)O; β3hP = O=C(O)C[C@@H]1CCCN1; NMeC = CN[C@@H](CS)C(=O)O; NMeA = CN[C@@H](C)C(=O)O; Orn = NCCC[C@H](N)C(=O)O; Nva = CCC[C@H](N)C(=O)O; Sar = CNCC(=O)O

T1: recombinant human MASP1 active protease (amino acids 297-699, C-terminal His Tag) (human, UniProt P48740 297-699)
T1 sequence: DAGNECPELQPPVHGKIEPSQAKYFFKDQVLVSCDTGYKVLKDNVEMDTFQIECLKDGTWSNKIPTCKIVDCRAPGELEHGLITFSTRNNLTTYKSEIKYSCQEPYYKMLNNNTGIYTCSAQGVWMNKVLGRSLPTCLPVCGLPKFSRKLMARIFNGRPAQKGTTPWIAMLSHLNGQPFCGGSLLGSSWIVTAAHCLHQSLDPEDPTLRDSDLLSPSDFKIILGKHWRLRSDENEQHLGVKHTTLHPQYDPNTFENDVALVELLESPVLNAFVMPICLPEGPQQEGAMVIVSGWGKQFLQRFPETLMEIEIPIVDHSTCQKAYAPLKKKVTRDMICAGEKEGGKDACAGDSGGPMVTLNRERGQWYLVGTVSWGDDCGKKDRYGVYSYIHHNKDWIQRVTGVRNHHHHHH

T2: recombinant human MASP1 active protease (amino acids 297-699, C-terminal His Tag) (human, UniProt P48740 297-699)
T2 sequence: T1 sequence

B1: Example 449: ((N-Me)G)-IC+SRSLP-(Oic)-I-(Pen)+IP-((1R,3S)-3-(Amino)cyclopentanecarboxylic acid)-OH (peptide)
peptide: [Sar]ICSRSLP[Oic]I[Pen]IP[X3]-OH
modifications: disulfide 3-11; N-terminus assumed
SMILES: CC[C@H](C)[C@H](NC(=O)CNC)C(=O)N[C@H]1CSSC(C)(C)[C@@H](C(=O)N[C@H](C(=O)N2CCC[C@H]2C(=O)N[C@H]2CC[C@@H](C(=O)O)C2)[C@@H](C)CC)NC(=O)[C@H]([C@@H](C)CC)NC(=O)[C@@H]2C[C@@H]3CCCC[C@@H]3N2C(=O)[C@@H]2CCCN2C(=O)[C@H](CC(C)C)NC(=O)[C@H](CO)NC(=O)[C@H](CCCNC(=N)N)NC(=O)[C@H](CO)NC1=O
B2: Example 455: ((N-Me)G)-IC+SRSLP-(Oic)-I-(Pen)+IP-(beta-homo-P)-OH (peptide)
peptide: [Sar]ICSRSLP[Oic]I[Pen]IP[β3hP]-OH
modifications: disulfide 3-11; N-terminus assumed
SMILES: CC[C@H](C)[C@H](NC(=O)CNC)C(=O)N[C@H]1CSSC(C)(C)[C@@H](C(=O)N[C@H](C(=O)N2CCC[C@H]2C(=O)N2CCC[C@H]2CC(=O)O)[C@@H](C)CC)NC(=O)[C@H]([C@@H](C)CC)NC(=O)[C@@H]2C[C@@H]3CCCC[C@@H]3N2C(=O)[C@@H]2CCCN2C(=O)[C@H](CC(C)C)NC(=O)[C@H](CO)NC(=O)[C@H](CCCNC(=N)N)NC(=O)[C@H](CO)NC1=O
B3: Example 445: ((N-Me)A)-IC+SRS-((tBu)A)-P-((3R,6R)-1,1-Difluoro-5-azaspiro[2.4]heptane-6-carboxylic acid (enantiomer 2))-I-(Pen)+IP-NH2 (peptide)
peptide: [NMeA]ICSRS[tBuAla]P[(3R,6R)‑1,1‑Difluoro‑5‑azaspiro(2.4)heptane‑6‑carboxylic acid (enantiomer 2)]I[Pen]IP-NH2
modifications: disulfide 3-11
B4: Example 452: ((N-Me)G)-IC+SRSLP-(Oic)-I-(Pen)+IP-((1S,3R)-3-(Amino)cyclopentanecarboxylic acid)-OH (peptide)
peptide: [Sar]ICSRSLP[Oic]I[Pen]IP[X4]-OH
modifications: disulfide 3-11; N-terminus assumed
SMILES: CC[C@H](C)[C@H](NC(=O)CNC)C(=O)N[C@H]1CSSC(C)(C)[C@@H](C(=O)N[C@H](C(=O)N2CCC[C@H]2C(=O)N[C@@H]2CC[C@H](C(=O)O)C2)[C@@H](C)CC)NC(=O)[C@H]([C@@H](C)CC)NC(=O)[C@@H]2C[C@@H]3CCCC[C@@H]3N2C(=O)[C@@H]2CCCN2C(=O)[C@H](CC(C)C)NC(=O)[C@H](CO)NC(=O)[C@H](CCCNC(=N)N)NC(=O)[C@H](CO)NC1=O
B5: Example 448: ((N-Me)G)-IC+RRS-((tBu)A)-PP-(Nva)-(Pen)+IP-NH2 (peptide)
peptide: [Sar]ICRRS[tBuAla]PP[Nva][Pen]IP-NH2
modifications: disulfide 3-11; N-terminus assumed
SMILES: CCC[C@@H]1NC(=O)[C@@H]2CCCN2C(=O)[C@@H]2CCCN2C(=O)[C@H](CC(C)(C)C)NC(=O)[C@H](CO)NC(=O)[C@H](CCCNC(=N)N)NC(=O)[C@H](CCCNC(=N)N)NC(=O)[C@@H](NC(=O)[C@@H](NC(=O)CNC)[C@@H](C)CC)CSSC(C)(C)[C@@H](C(=O)N[C@H](C(=O)N2CCC[C@H]2C(N)=O)[C@@H](C)CC)NC1=O
B6: Example 454: ((N-Me)G)-IC+SRSLP-(Oic)-I-(Pen)+IPN-OH (peptide)
peptide: [Sar]ICSRSLP[Oic]I[Pen]IPN-OH
modifications: disulfide 3-11; N-terminus assumed
SMILES: CC[C@H](C)[C@H](NC(=O)CNC)C(=O)N[C@H]1CSSC(C)(C)[C@@H](C(=O)N[C@H](C(=O)N2CCC[C@H]2C(=O)N[C@@H](CC(N)=O)C(=O)O)[C@@H](C)CC)NC(=O)[C@H]([C@@H](C)CC)NC(=O)[C@@H]2C[C@@H]3CCCC[C@@H]3N2C(=O)[C@@H]2CCCN2C(=O)[C@H](CC(C)C)NC(=O)[C@H](CO)NC(=O)[C@H](CCCNC(=N)N)NC(=O)[C@H](CO)NC1=O
B7: AIC+SRS-((tBu)A)-PPI-((N-Me)C)+IPD-NH2 (peptide)
peptide: AICSRS[tBuAla]PPI[NMeC]IPD-NH2
modifications: disulfide 3-11; N-terminus assumed
SMILES: CC[C@H](C)[C@H](NC(=O)[C@H](C)N)C(=O)N[C@H]1CSSC[C@@H](C(=O)N[C@H](C(=O)N2CCC[C@H]2C(=O)N[C@@H](CC(=O)O)C(N)=O)[C@@H](C)CC)N(C)C(=O)[C@H]([C@@H](C)CC)NC(=O)[C@@H]2CCCN2C(=O)[C@@H]2CCCN2C(=O)[C@H](CC(C)(C)C)NC(=O)[C@H](CO)NC(=O)[C@H](CCCNC(=N)N)NC(=O)[C@H](CO)NC1=O
B8: Example 456: ((N-Me)G)-IC+SRSLP-(Oic)-I-(Pen)+IP-((S)-Pyrrolidine-3-carboxylic acid)-OH (peptide)
peptide: [Sar]ICSRSLP[Oic]I[Pen]IP[βPro(3S)]-OH
modifications: disulfide 3-11; N-terminus assumed
SMILES: CC[C@H](C)[C@H](NC(=O)CNC)C(=O)N[C@H]1CSSC(C)(C)[C@@H](C(=O)N[C@H](C(=O)N2CCC[C@H]2C(=O)N2CC[C@H](C(=O)O)C2)[C@@H](C)CC)NC(=O)[C@H]([C@@H](C)CC)NC(=O)[C@@H]2C[C@@H]3CCCC[C@@H]3N2C(=O)[C@@H]2CCCN2C(=O)[C@H](CC(C)C)NC(=O)[C@H](CO)NC(=O)[C@H](CCCNC(=N)N)NC(=O)[C@H](CO)NC1=O
B9: Example 447: ((N-Me)G)-IC+SRS-((tBu)A)-PPI-(Pen)+IP-((1-Bn)H)-OH (peptide)
peptide: [Sar]ICSRS[tBuAla]PPI[Pen]IP[His(τ-Bzl)]-OH
modifications: disulfide 3-11; N-terminus assumed
SMILES: CC[C@H](C)[C@H](NC(=O)CNC)C(=O)N[C@H]1CSSC(C)(C)[C@@H](C(=O)N[C@H](C(=O)N2CCC[C@H]2C(=O)N[C@@H](Cc2cn(Cc3ccccc3)cn2)C(=O)O)[C@@H](C)CC)NC(=O)[C@H]([C@@H](C)CC)NC(=O)[C@@H]2CCCN2C(=O)[C@@H]2CCCN2C(=O)[C@H](CC(C)(C)C)NC(=O)[C@H](CO)NC(=O)[C@H](CCCNC(=N)N)NC(=O)[C@H](CO)NC1=O
B10: Example 451: ((N-Me)G)-IC+SRSLP-(Oic)-I-(Pen)+IP-((S)-(1-Piperidin-3-yl)-acetic acid)-OH (peptide)
peptide: [Sar]ICSRSLP[Oic]I[Pen]IP[X6]-OH
modifications: disulfide 3-11; N-terminus assumed
SMILES: CC[C@H](C)[C@H](NC(=O)CNC)C(=O)N[C@H]1CSSC(C)(C)[C@@H](C(=O)N[C@H](C(=O)N2CCC[C@H]2C(=O)N2CCC[C@@H](CC(=O)O)C2)[C@@H](C)CC)NC(=O)[C@H]([C@@H](C)CC)NC(=O)[C@@H]2C[C@@H]3CCCC[C@@H]3N2C(=O)[C@@H]2CCCN2C(=O)[C@H](CC(C)C)NC(=O)[C@H](CO)NC(=O)[C@H](CCCNC(=N)N)NC(=O)[C@H](CO)NC1=O
B11: Example 453: ((N-Me)G)-IC+SRSLP-(Oic)-I-(Pen)+IP-((S)-3-(1-Pyrrolidine-2-yl)-propionic acid)-OH (peptide)
peptide: [Sar]ICSRSLP[Oic]I[Pen]IP[X9]-OH
modifications: disulfide 3-11; N-terminus assumed
SMILES: CC[C@H](C)[C@H](NC(=O)CNC)C(=O)N[C@H]1CSSC(C)(C)[C@@H](C(=O)N[C@H](C(=O)N2CCC[C@H]2C(=O)N2CCC[C@H]2CCC(=O)O)[C@@H](C)CC)NC(=O)[C@H]([C@@H](C)CC)NC(=O)[C@@H]2C[C@@H]3CCCC[C@@H]3N2C(=O)[C@@H]2CCCN2C(=O)[C@H](CC(C)C)NC(=O)[C@H](CO)NC(=O)[C@H](CCCNC(=N)N)NC(=O)[C@H](CO)NC1=O
B12: (Orn)-IC+SRSLP-(Oic)-I-(Pen)+IPD-NH2 (peptide)
peptide: [Orn]ICSRSLP[Oic]I[Pen]IPD-NH2
modifications: disulfide 3-11; N-terminus assumed
SMILES: CC[C@H](C)[C@H](NC(=O)[C@@H](N)CCCN)C(=O)N[C@H]1CSSC(C)(C)[C@@H](C(=O)N[C@H](C(=O)N2CCC[C@H]2C(=O)N[C@@H](CC(=O)O)C(N)=O)[C@@H](C)CC)NC(=O)[C@H]([C@@H](C)CC)NC(=O)[C@@H]2C[C@@H]3CCCC[C@@H]3N2C(=O)[C@@H]2CCCN2C(=O)[C@H](CC(C)C)NC(=O)[C@H](CO)NC(=O)[C@H](CCCNC(=N)N)NC(=O)[C@H](CO)NC1=O
B13: Example 450: ((N-Me)G)-IC+SRSLP-(Oic)-I-(Pen)+IP-((R)-4-Amino-6-methylheptanoic acid)-OH (peptide)
peptide: [Sar]ICSRSLP[Oic]I[Pen]IP[X8]-OH
modifications: disulfide 3-11; N-terminus assumed
SMILES: CC[C@H](C)[C@H](NC(=O)CNC)C(=O)N[C@H]1CSSC(C)(C)[C@@H](C(=O)N[C@H](C(=O)N2CCC[C@H]2C(=O)N[C@H](CCC(=O)O)CC(C)C)[C@@H](C)CC)NC(=O)[C@H]([C@@H](C)CC)NC(=O)[C@@H]2C[C@@H]3CCCC[C@@H]3N2C(=O)[C@@H]2CCCN2C(=O)[C@H](CC(C)C)NC(=O)[C@H](CO)NC(=O)[C@H](CCCNC(=N)N)NC(=O)[C@H](CO)NC1=O
B14: Example 446: ((N-Me)G)-IC+SRSLP-(Oic)-I-(Pen)+IP-(Ida)-OH (peptide)
peptide: [Sar]ICSRSLP[Oic]I[Pen]IP[Ida]-OH
modifications: disulfide 3-11

Tests used:
Experiment in all cases: cell-based or functional assay
[1] = target: T1, recombinant human MASP1 active protease …
[2] = target: recombinant human MASP2 active protease (amino acids 297-686, C-terminal His Tag) (human, UniProt O00187 297-686)
Target sequence in this assay (O00187 other isoform, or with tags, fused parts or gaps limits assumed): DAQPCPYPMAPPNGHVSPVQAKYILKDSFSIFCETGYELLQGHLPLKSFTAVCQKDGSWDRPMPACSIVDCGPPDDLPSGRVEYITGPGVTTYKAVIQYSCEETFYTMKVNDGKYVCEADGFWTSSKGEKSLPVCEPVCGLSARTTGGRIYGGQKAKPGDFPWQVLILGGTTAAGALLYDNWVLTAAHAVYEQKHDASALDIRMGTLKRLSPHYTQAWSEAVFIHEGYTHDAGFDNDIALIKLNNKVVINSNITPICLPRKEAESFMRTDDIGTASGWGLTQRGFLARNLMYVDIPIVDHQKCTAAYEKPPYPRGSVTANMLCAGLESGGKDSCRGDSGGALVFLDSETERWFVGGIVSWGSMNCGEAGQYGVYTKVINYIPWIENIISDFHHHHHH

[3] = target: recombinant human MASP2 active protease (amino acids 297-686, C-terminal His Tag) (human, UniProt O00187 297-686); remark: listed apart in the source
Target sequence in this assay (O00187 other isoform, or with tags, fused parts or gaps limits assumed): as above

[4] = target: T2, recombinant human MASP1 active protease …; remark: listed apart in the source

Binder | human MASP1 IC50 [1] | human MASP2 IC50 [2] | human MASP2 IC50 [3] | human MASP1 IC50 [4]
B1 | 1.8 nM | 93 nM | – | –
B2 | 2.9 nM | 85 nM | – | –
B3 | 3 nM | 300 nM | – | –
B4 | 2 nM | 100 nM | – | –
B5 | 440 nM | 1000 nM | – | –
B6 | 2 nM | 99 nM | – | –
B7 | – | – | 225 nM | 1.95 nM
B8 | 1.9 nM | 110 nM | – | –
B9 | 4.7 nM | 65.5 nM | – | –
B10 | 2.6 nM | 61 nM | – | –
B11 | 2.5 nM | 56 nM | – | –
B12 | – | – | 76 nM | 2 nM
B13 | 5.8 nM | 230 nM | – | –
B14 | 2.7 nM | 72 nM | – | –
